This data set can be described thus: protein stability index of a GFP-peptide fusion (GPS, HEK-293T) (PSI 1-6); higher = more stable.
The mark [1] stands for this setting: treatment: DMSO, c terminus: a fixed tail appended.
Where [2] appears, read: treatment: MLN4924 1 uM, 8 h, c terminus: a fixed tail appended.

In the supplement of paper PMC10567573 one finds protein stability index data, which are given here for 72 sequences.

± gives the standard deviation.
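Also: 24-mer peptide tiles fused after GFP, lentivirally expressed, FACS-sorted into six equal bins by GFP/DsRed ratio, decoded by Illumina sequencing, PSI is the read-weighted mean bin number.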

Sequence QFSSRDCTRPVPRNGGKYCEGRRT [ADAMTS4] showed a protein stability index under setting [1] of 4.22 ± 0.47 and a protein stability index under setting [2] of 4.51 ± 0.55.
For QFTAWPDHGVPEHPTPFLAFLRRV [PTPRD], in that order: 2.44 ± 0.2 and 2.76 ± 0.26.
Turning to QGEEPWVQVSPEFKDSAGKSPTGL [ZNF75A], the protein stability index runs as follows: under setting [1], 4.87 ± 0.22; under setting [2], 5.04 ± 0.22.
The corresponding values for QGEICLCTSRIFVQKSIYSEFLKR [ALDH8A1] are 2.29 ± 0.64 and 2.06 ± 0.49.
The corresponding values for QGKADGLYPNPRERSSFYSCAGGR [CHIT1] are 3.64 ± 0.097 and 3.87 ± 0.31.
For QGVHQGAGFQDIPKRCLKAREHFG [TSN], the protein stability index worked out at 3.31 ± 0.36 under setting [1] and 2.9 ± 0.27 under setting [2].
For the sequence QHNLRYSLENTLTESEARYSSQLS [KRT33B], the protein stability index by setting is: under setting [1], 4.11 ± 0.27; under setting [2], 4.11 ± 0.21.
QICGTHRQTKKMFCDMDKSLLCLL [TRIM43]: the protein stability index by setting is: under setting [1], 2.77 ± 1; under setting [2], 2.18 ± 0.36.
For QIQEFKEAFTLMDQNRDGFIDKED [MYL5], in that order: 5.12 ± 0.26 and 5.19 ± 0.32.
For QKLEREARICRLLKHPNIVRLHDS [CAMK2A], in that order: 2.5 ± 0.13 and 2.72 ± 0.17.
The sequence QKSGLIRHQKIHSGEKPYKCSDCG [ZNF649] had a protein stability index under setting [1] of 3.63 ± 0.52 and a protein stability index under setting [2] of 4.04 ± 0.29.
Regarding QLAAGRHGDDLKNTKNEISELTRL [KRT71], the protein stability index by setting is: under setting [1], 4.58 ± 0.32; under setting [2], 4.52 ± 0.15.
The corresponding values for QLGQRIYQYIQSRFYRSPEVLLGT [DYRK1B] are 2.23 ± 0.16 and 2.53 ± 0.44.
In the case of QLNGILLHLESELAQTRAEGQRQA [KRT18], the protein stability index stood at 2.93 ± 0.26 under setting [1] and 2.86 ± 0.16 under setting [2].
For QLVNSSADNMLEYKSWLKNLAKEQ [PPEF2], in that order: 3.24 ± 0.17 and 3.77 ± 0.5.
The corresponding values for QLWELGKVLRKAGLSAGYVDAGAE [LPCAT4] are 2.13 ± 0.27 and 2.13 ± 0.36.
Regarding QNCKKKLGKLPPQYALELLTVYAW [OAS1], the protein stability index reads like this: under setting [1], 2.6 ± 0.58; under setting [2], 2.25 ± 0.64.
The corresponding values for QNLYFNCSSPGVQACSLPASCCID [TSPAN10] are 3.12 ± 0.22 and 3.25 ± 0.2.
The corresponding values for QNRRAKLKRSHRESQFLMAKKNFN [HESX1] are 3.43 ± 0.24 and 3.48 ± 0.43.
Regarding QNVDVNVHPTKHEVHFLHEESILE [MLH1], the protein stability index under setting [1] was 4.72 ± 0.19 and the protein stability index under setting [2] is 4.75 ± 0.056.
For QNVRNHIHSCFSDVTCFLLPHPGL [ATL3], in that order: 2.49 ± 0.65 and 2.29 ± 0.55.
For QPADVFPRLFKEWNITKLSIEYDS [CRY1], in that order: 2.7 ± 0.32 and 2.92 ± 0.3.
For QPGLSFLNLGSGTGYLSTMVGLIL [PCMTD1], in that order: 2.15 ± 0.29 and 2.2 ± 0.31.
On to QPKEPQLTCDSAQKCHSIGETDEV [ZSCAN9], for which the protein stability index came out at 5.43 ± 0.22 under setting [1] and 5.57 ± 0.21 under setting [2].
The corresponding values for QPLNFVRFYLPLLIHQHEKVIYLD [GLT8D2] are 3.02 ± 0.59 and 3.03 ± 0.69.
The corresponding values for QPPPPRRVTNVGSLLLTPQENESL [WASL] are 4.73 ± 0.083 and 4.66 ± 0.27.
QPPTTTVARSGTPAVENKQQIGDA [PLK2]: the protein stability index runs as follows: under setting [1], 5.4 ± 0.16; under setting [2], 5.37 ± 0.37.
The corresponding values for QQKWTKPARAGSEVEWTEDLALDL [C2CD2L] are 4.37 ± 0.27 and 4.48 ± 0.28.
For QQYQEQLDKSTKLVETAIQSLDEP [TRIM63], in that order: 5.1 ± 0.32 and 5.07 ± 0.086.
The corresponding values for QRQVWLLFEYPESSGPARGIAIVS [KCNA3] are 2.69 ± 0.21 and 2.48 ± 0.77.
For QRTHTGEKPYGCIDCGKAFSQKSC [ZNF649], the protein stability index reads like this: under setting [1], 3.47 ± 0.27; under setting [2], 3.87 ± 0.23.
For QSGATISMPCSTDKENGENVGLES [SASS6], in that order: 5.55 ± 0.22 and 5.43 ± 0.27.
The corresponding values for QSQLICILKRRSDEALERCQILEL [CCDC89] are 2.52 ± 0.14 and 2.04 ± 0.44.
The corresponding values for QTEKTTRVRTVLNEKQLHTLRTCY [ISL2] are 2.66 ± 0.24 and 2.8 ± 0.33.
For QTMLSHYRPFYVNKGNGIGSNEAP [TRIM29], the protein stability index reads like this: under setting [1], 2.97 ± 0.27; under setting [2], 3.17 ± 0.2.
On to QTWNNSTWSNQTQNIQSWSNHSWN [NANOGP8], for which the protein stability index worked out at 2.36 ± 0.24 under setting [1] and 2.46 ± 0.28 under setting [2].
Consider QTYQPPWKALSEFALQSDLDQPAF [ISL2], for which the protein stability index was determined as 2.96 ± 0.28 under setting [1] and 3.04 ± 0.21 under setting [2].
For QVLEMKNQQIHEQEKKILELEKLA [MTUS2], in that order: 4.68 ± 0.31 and 4.62 ± 0.45.
For QYQTVRYDILPLSPVSRNRLAQVK [CTDNEP1], in that order: 3.02 ± 0.19 and 3.04 ± 0.29.
For RAEPYPTSRFGSQCMQPNNIMGIE [NR2F2], in that order: 2.84 ± 0.15 and 2.81 ± 0.18.
With RAVIAWMEKIPFVLGGNLQGGELV [CPXM2], the protein stability index under setting [2] was determined as 2.36 ± 0.63.
In turn, RDPAAGAAPFRFVARPVRFPREHQ [ZNF511] displayed a protein stability index under setting [1] of 2.61 ± 0.72 and a protein stability index under setting [2] of 3.23 ± 0.68.
The corresponding values for RDTRDYAPPPRDYTYRDYGHSSSR [RBMX] are 4.01 ± 0.14 and 3.65 ± 0.77.
REETPRMPSWASARDRQPSDFKTD [ELOA2]: the protein stability index reads like this: under setting [1], 4.96 ± 0.18; under setting [2], 5.03 ± 0.38.
For REKEDYLHLKRQPKRRWLFWNSPS [RHOBTB2], in that order: 2.42 ± 0.23 and 2.56 ± 0.18.
RELLMNHRRGLGVDSKPELQRVLE [FAM107A]: the protein stability index runs as follows: under setting [1], 3.95 ± 0.18; under setting [2], 4.09 ± 0.14.
The corresponding values for RERNMAPDLRQDFNMMEQKKRVSM [ADD1] are 4.53 ± 0.11 and 4.5 ± 0.092.
For RFEEGGRRKCGQYWPLEKDSRIRF [PTPN9], in that order: 3.04 ± 0.36 and 2.88 ± 0.33.
The corresponding values for RGEALGLVGAQAPATEEQEAASSS [MAGEA3] are 5.61 ± 0.27 and 5.62 ± 0.1.
As to RGFAFVTFESPADAKDAARDMNGK [RBMX], the protein stability index reads like this: under setting [1], 4.12 ± 0.16; under setting [2], 4.19 ± 0.26.
The corresponding values for RHAEQQALRLEVRAGPDSAGIALY [CARM1] are 2.54 ± 0.43 and 2.81 ± 0.7.
Consider RHCPELAEMSRVSIRILDELVLPF [HNF4A], for which the protein stability index is, setting by setting: under setting [1], 2.12 ± 0.13; under setting [2], 2.31 ± 0.38.
For RHQKIHSGEKPYKCSDCGKAFLTK [ZNF649], in that order: 3.07 ± 0.069 and 3.25 ± 0.31.
For RHSYQVYRQPIPVQELVLEDLQDG [NET1], in that order: 4.38 ± 0.083 and 4.24 ± 0.24.
The corresponding values for RIYRMIKLGLGIDEDEVAAEEPNA [HSP90AB1] are 2.95 ± 0.24 and 3.19 ± 0.38.
RKTHVLLGRSHDTVQEAATSRRAR [MFSD9]: the protein stability index reads like this: under setting [1], 4.64 ± 0.41; under setting [2], 4.73 ± 0.27.
Take RLAAIAQEKDQEMERLRELQRASI [FBF1]: the protein stability index under setting [1] amounted to 4.34 ± 0.17 and the protein stability index under setting [2] was 4.43 ± 0.22.
For RLDFFEKPDYEYLRTLFTDLFEKK [CSNK1G1], the protein stability index was determined as 2.54 ± 0.38 under setting [1] and 2.77 ± 0.41 under setting [2].
For RLNKLRLESEGSPETLTNLRKGYL [HACD3], in that order: 3.25 ± 0.23 and 3.35 ± 0.33.
Regarding RLQGLEADCVRGPDGVCLSGGRGP [PBXIP1], the protein stability index was 4.4 ± 0.082 under setting [1] and 4.24 ± 0.32 under setting [2].
For RNRKLKCTFSLTHPANRSCRETGS [SLC22A15], in that order: 3.37 ± 0.16 and 3.44 ± 0.23.
The corresponding values for RNRPSFDAILYYYQSGGRLKRPVN [KCNA4] are 2.08 ± 0.27 and 2.42 ± 0.5.
Regarding RPATEAELLTCHSAEYVGHLRATE [HDAC6], the protein stability index was 4.1 ± 0.2 under setting [1] and 3.85 ± 0.19 under setting [2].
For RPDKALSEGDLKNAIRVHHALATR [PSD2], in that order: 4.07 ± 0.1 and 4.31 ± 0.3.
The corresponding values for RPSQYRPDGLRSGDGVPPRSLQDG [LCOR] are 4.83 ± 0.091 and 4.85 ± 0.17.
The corresponding values for RPTSCWQLDWDELETNQQHFHALC [M1AP] are 2.39 ± 0.21 and 2.77 ± 0.38.
Turning to RQAVAWLVAMHKAAKLLYESRDQ [ZFYVE21], the protein stability index was 2.95 ± 1.1 (treatment: DMSO, c terminus: native) and 2.28 ± 0.3 (treatment: MLN4924 1 uM, 8 h, c terminus: native).
For RQFLPEEFMKTLEKTGPQLTSRIK [DENND6A], the protein stability index came out at 3.55 ± 0.33 under setting [1] and 3.58 ± 0.43 under setting [2].
The corresponding values for RQSYDISIVAQVDQTGSKSSNLLD [CARM1] are 3.93 ± 0.092 and 4.07 ± 0.17.
The corresponding values for RRLLRRLSPSRGVAQCLRDLVAMQ [ZSWIM9] are 2.49 ± 0.36 and 2.89 ± 0.32.
The corresponding values for RRQLEACQRERAFSVKFEVQAPRW [OAS1] are 2.75 ± 0.23 and 2.93 ± 0.18.
Turning to RSNTLRERSQVRGSAPPRATPGGG [PCDHGC5], the protein stability index runs as follows: under setting [1], 4.68 ± 0.17; under setting [2], 4.47 ± 0.28.
